Our source for the Kd and koff values is PMC7094404 (Archives of Biochemistry and Biophysics, 2008).

This data set deals with the molecule itself. As to the kind of experiment: AUC.

B1: SARS-CoV main protease, full-length wild type, C-terminal His6 (enzyme)
chain: SGFRKMAFPSGKVEGCMVQVTCGTTTLNGLWLDDTVYCPRHVICTAEDMLNPNYEDLLIRKSNHSFLVQAGNVQLRVIGHSMQNCLLRLKVDTSNPKTPKYKFVRIQPGQTFSVLACYNGSPSGVYQCAMRPNHTIKGSFLNGSCGSVGFNIDYDCVSFCYMHHMELPTGVHAGTDLEGKFYGPFVDRQTAQAAGTDTTITLNVLAWLYAAVINGDRWFLNRFTTTLNDFNLVAMKYNYEPLTQDHVDILGPLSAQTGIAVLDMCAALKELLQNGMNGRTILGSTILEDEFTPFDVVRQCSGVTFQ
B1 gave a Kd of 80 ± 5 nM and a koff of 0.01 ± 0.001 s⁻¹.

One may read the Kd as a measure of binding affinity in units of concentration. Low readings indicate a tighter complex, high ones a looser complex. As usually defined, the koff is the rate constant with which the complex falls apart.
